In assay [1] the target is Human recombinant fibroblast activation protein alpha (human, UniProt Q12884, glycosylated (sites not given)). The assay can be described thus: cross-linking + other: mass photometry.
Assay [2] has as its target Biotinylated dipeptidyl peptidase IV (DPP4) (Homo sapiens, UniProt P27487, biotin (site not given)). Briefly: BLI. In general terms: Biolayer interferometry detects binding as a change in optical thickness at a sensor tip.

Sequence of Biotinylated dipeptidyl peptidase IV (DPP4) (P27487 39-766): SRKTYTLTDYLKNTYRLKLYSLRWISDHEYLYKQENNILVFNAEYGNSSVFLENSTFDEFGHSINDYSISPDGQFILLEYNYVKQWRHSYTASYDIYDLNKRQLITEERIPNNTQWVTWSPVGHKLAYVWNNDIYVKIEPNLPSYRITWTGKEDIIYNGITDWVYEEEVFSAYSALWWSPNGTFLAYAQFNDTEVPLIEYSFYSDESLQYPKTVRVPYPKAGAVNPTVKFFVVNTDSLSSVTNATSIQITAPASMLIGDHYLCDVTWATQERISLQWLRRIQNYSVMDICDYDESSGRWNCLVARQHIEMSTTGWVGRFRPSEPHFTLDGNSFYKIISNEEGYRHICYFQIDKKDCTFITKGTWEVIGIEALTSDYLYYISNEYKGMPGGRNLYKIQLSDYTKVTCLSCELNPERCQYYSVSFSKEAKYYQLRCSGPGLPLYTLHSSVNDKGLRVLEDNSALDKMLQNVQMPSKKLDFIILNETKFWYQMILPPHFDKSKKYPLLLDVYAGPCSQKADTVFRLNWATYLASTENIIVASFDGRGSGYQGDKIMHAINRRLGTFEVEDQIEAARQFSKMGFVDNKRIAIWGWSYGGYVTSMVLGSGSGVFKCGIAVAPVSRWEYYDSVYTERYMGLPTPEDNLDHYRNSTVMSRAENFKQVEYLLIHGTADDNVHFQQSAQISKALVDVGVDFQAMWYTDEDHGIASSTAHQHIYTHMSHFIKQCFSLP
Sequence of Human recombinant fibroblast activation protein alpha (Q12884 27-760): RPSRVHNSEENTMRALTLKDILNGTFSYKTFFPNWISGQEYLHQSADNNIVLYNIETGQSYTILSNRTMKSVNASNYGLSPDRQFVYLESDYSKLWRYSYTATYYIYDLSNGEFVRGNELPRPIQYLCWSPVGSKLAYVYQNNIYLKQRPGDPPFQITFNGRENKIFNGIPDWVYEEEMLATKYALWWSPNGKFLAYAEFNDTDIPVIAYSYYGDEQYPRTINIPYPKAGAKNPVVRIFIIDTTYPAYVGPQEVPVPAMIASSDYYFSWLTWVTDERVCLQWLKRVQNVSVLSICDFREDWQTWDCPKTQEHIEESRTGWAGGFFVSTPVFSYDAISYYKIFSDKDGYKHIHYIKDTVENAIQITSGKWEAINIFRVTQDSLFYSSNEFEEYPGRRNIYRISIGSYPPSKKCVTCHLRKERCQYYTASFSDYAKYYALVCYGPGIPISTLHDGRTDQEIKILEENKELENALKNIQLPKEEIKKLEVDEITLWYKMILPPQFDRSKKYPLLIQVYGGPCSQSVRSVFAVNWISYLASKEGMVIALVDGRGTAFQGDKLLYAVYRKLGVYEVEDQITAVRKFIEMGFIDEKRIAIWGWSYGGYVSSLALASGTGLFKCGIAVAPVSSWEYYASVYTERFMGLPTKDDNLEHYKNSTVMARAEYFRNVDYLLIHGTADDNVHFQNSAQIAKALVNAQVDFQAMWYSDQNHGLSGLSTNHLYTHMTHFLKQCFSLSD

B1: SUMO-I3 (single domain antibody I3 fused to an N-terminal 6X His-SUMO-FLAG tag) (VHH)
VHH: EVQLVESGGGLVQPGGSLRLSCAASGFTFSSYAMSWVRQAPGKGLEWVSAINSGGGSTSYADSVKGRFTISRDNAKNTLYLQMNSLKPEDTAVYYCAKARTGWSLAVPSFGSWGQGTQVTVSS
A word on the stoichiometry N: it is a count of units in the complex or per binding partner. As for B1, in assay [1], the “stoichiometry N” value amounted to 1.

B2: MBP-I3 (single domain antibody I3 with N-terminal MBP fusion and C-terminal 6X His-tag) (VHH)
VHH: EVQLVESGGGLVQPGGSLRLSCAASGFTFSSYAMSWVRQAPGKGLEWVSAINSGGGSTSYADSVKGRFTISRDNAKNTLYLQMNSLKPEDTAVYYCAKARTGWSLAVPSFGSWGQGTQVTVSS
B2: the binding result in assay [2] was “no binding”.

(Values after PMC11834968 (RSC Chemical Biology, 2025).)
